Publication PMC8914392, “Biochemical and structural characterizations of thioredoxin reductase selenoproteins of the parasitic filarial nematodes Brugia malayi and Onchocerca volvulus” (Redox Biology, 2022)
Where two headings read alike, the source gives them in different places.

How the values were obtained:
OvTrxR (isoform D) [1] = system: T1, OvTrxR (isoform D); test: TNB formation at A412; format: biochemical, Onchocerca volvulus; details: 250 μM NADPH, 10 nM enzyme, pH 7.5
T1 construct: gene TrxR; pABC2a, N-terminal His-SUMO tag removed; E. coli C321.deltaA; Sec enriched; homodimer
From the text: TNB formation at A412 on OvTrxR (isoform D)

hTrxR1 = biological target: T2, hTrxR1 (Homo sapiens, UniProt Q16881); test: TNB formation at A412; format: biochemical; details: NADPH, pH 7.5
T2 construct: gene TXNRD1; recombinant selenoprotein, GCUG C-terminus, cytosolic form; homodimer
T2 sequence (Q16881 151-649): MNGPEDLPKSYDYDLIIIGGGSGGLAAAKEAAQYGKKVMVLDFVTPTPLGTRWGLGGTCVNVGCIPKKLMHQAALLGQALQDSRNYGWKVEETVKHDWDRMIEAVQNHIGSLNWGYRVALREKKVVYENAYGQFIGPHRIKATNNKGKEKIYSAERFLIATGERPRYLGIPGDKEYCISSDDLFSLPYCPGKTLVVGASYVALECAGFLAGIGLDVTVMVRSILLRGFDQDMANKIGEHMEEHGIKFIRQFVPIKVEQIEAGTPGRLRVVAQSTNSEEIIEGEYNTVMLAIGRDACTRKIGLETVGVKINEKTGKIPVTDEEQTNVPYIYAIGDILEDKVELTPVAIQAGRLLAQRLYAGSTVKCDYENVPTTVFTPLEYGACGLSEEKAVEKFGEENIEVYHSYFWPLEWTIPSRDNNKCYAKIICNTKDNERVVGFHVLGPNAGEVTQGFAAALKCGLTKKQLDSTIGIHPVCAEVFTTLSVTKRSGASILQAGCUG
From the text: TNB formation at A412 on hTrxR1

BmTrxR (isoform D) [2] = biological target: T3, BmTrxR (isoform D) (Brugia malayi, UniProt A0A1I9G0T9); test: DTNB reduction, A412, dose-response fit; format: biochemical; details: for IC50: read-out: Apparent IC50 (μM) ^a
T3 construct: gene bma-trxr-1; full-length isoform D, 598 residues, Grx-like domain 1-102 and TrxR domain 103-598, Sec at 597; pABC2a, N-terminal His-SUMO tag removed; E. coli C321.deltaA; homodimer
T3 sequence (A0A1I9G0T9 116-713): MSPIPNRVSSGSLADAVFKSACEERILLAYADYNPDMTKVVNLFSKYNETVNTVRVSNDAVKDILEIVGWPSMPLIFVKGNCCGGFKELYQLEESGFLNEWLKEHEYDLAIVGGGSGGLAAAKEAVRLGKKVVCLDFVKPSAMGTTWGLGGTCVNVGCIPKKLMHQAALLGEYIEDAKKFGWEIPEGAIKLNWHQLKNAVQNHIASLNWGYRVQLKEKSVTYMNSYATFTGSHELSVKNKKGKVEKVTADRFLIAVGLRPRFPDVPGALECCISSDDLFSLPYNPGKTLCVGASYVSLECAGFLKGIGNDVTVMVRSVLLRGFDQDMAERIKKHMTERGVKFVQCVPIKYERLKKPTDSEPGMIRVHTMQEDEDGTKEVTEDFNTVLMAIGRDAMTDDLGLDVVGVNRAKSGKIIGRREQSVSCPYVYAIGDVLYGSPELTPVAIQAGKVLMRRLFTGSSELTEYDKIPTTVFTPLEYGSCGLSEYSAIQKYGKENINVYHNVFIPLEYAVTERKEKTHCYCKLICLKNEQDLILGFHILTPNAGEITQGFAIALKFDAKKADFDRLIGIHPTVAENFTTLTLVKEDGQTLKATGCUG
From the text: DTNB reduction, A412, dose-response fit on BmTrxR (isoform D)

OvTrxR (isoform D) [3] = system: T1, OvTrxR (isoform D); test: DTNB reduction, A412, dose-response fit; format: biochemical, Onchocerca volvulus; details: 25 nM enzyme, 30 min preincubation with 0.25 mM NADPH and 0.1 mg/ml BSA, 1 mM DTNB, pH 7.5; for IC50: read-out: Apparent IC50 (μM) ^a
From the text: DTNB reduction, A412, dose-response fit on OvTrxR (isoform D)

[4] = biological target: thioredoxin reductase from Brugia malayi, isoform D (Brugia malayi)
[5] = biological target: thioredoxin reductase from Onchocerca volvulus, isoform D (Onchocerca volvulus)
BmTrxR (isoform D) [6] = biological target: T3, BmTrxR (isoform D); test: ThermoFAD; format: binding; details: 1 mM NADPH; Tm without NADPH 64.5 °C
purified protein = substrate: O=C(O)c1cc(SSc2ccc([N+](=O)[O-])c(C(=O)O)c2)ccc1[N+](=O)[O-]; test: purified protein; details: 250 μM NADPH, 20 nM enzyme, pH 7.5

Work on `O=C(O)c1cc(SSc2ccc([N+](=O)[O-])c(C(=O)O)c2)ccc1[N+](=O)[O-]` [DTNB, 5,5′-dithiobis-(2-nitrobenzoic acid)] yielded a Km (OvTrxR (isoform D) [1]) of 170 ± 12 µM and a Km (hTrxR1) of 61 ± 8.4 µM.

With `COc1ccc([N+](=O)[O-])c(S(=O)(=O)c2ccc(Cl)cc2)n1` [TRi-1] the IC50 (BmTrxR (isoform D) [2]) was 0.013 µM and the IC50 (OvTrxR (isoform D) [3]) was 0.012 µM.

Molecule “Brugia malayi thioredoxin 1 (natural protein)” has a Km of the reductase for the Trx, Trx-linked insulin disulfide reduction assay (NADPH consumption at A340) [4] of 2.7 µM and a Km of the reductase for the Trx, Trx-linked insulin disulfide reduction assay (NADPH consumption at A340) [5] of 2.4 µM.

With “Brugia malayi thioredoxin 2 (natural protein)” the Km of the reductase for the Trx, Trx-linked insulin disulfide reduction assay (NADPH consumption at A340) [4] was 4.7 µM.

With NADPH the Tm (BmTrxR (isoform D) [6]) was 48.3 ± 0.6 °C.

“Onchocerca volvulus thioredoxin 1 (natural protein)” gave a Km of the reductase for the Trx, Trx-linked insulin disulfide reduction assay (NADPH consumption at A340) [4] of 1.1 µM and a Km of the reductase for the Trx, Trx-linked insulin disulfide reduction assay (NADPH consumption at A340) [5] of 1.6 µM.

Work on “Onchocerca volvulus thioredoxin 2 (natural protein)” yielded a Km of the reductase for the Trx, Trx-linked insulin disulfide reduction assay (NADPH consumption at A340) [4] of 9.6 µM and a Km of the reductase for the Trx, Trx-linked insulin disulfide reduction assay (NADPH consumption at A340) [5] of 4.5 µM.

With TRi-2 the “Apparent IC50 (μM) ^a” value (BmTrxR (isoform D) [2]; 25 nM enzyme, 30 min preincubation with 0.25 mM NADPH and 0.1 mg/ml BSA, 1 mM DTNB, pH 7.5, unreliable (above the printed inhibitor range 1 nM-1 μM)) was 1.8 µM and the “Apparent IC50 (μM) ^a” value (OvTrxR (isoform D) [3]; unreliable (above the printed inhibitor range 1 nM-1 μM)) was 1.5 µM.

auranofin showed an IC50 (BmTrxR (isoform D) [2]; 25 nM enzyme, 30 min preincubation with 0.25 mM NADPH and 0.1 mg/ml BSA, 1 mM DTNB, pH 7.5, covalent) of 0.0024 µM and an IC50 (OvTrxR (isoform D) [3]; covalent) of 0.0032 µM.

B1: BmTrxR (isoform D) (Brugia malayi) (protein)
chain: T3 sequence (A0A1I9G0T9 116-713)
B1 showed a Km (purified protein) of 70 ± 7.8 µM, a kcat (purified protein) of 20 ± 0.95 s⁻¹ and a kcat/Km (purified protein) of 283000 M⁻¹ s⁻¹.
